Tests used:
Assay in all cases: phosphate release, molybdate assay, A820
YqeG = molecular target: T1, YqeG (Bacillus subtilis, UniProt P54452); type: biochemical; conditions: 10 mM substrate, 12 h, 50 mM Tris-HCl pH 7.8, 10 mM MgCl2, 250 mM KCl, 1 mM NH4Cl, 37 °C
T1 construct: gene pgpP; full-length ORF, C-terminal His6 (pET28b, NdeI/HindIII), expressed in E. coli BL21(DE3), TALON purified

AraL = molecular target: T2, AraL (Bacillus subtilis, UniProt P94526); type: biochemical; conditions: 10 mM substrate, 12 h, 50 mM Tris-HCl pH 7.8, 10 mM MgCl2, 250 mM KCl, 1 mM NH4Cl, 37 °C
T2 construct: full-length ORF, C-terminal His6 (pET28b, NdeI/XhoI), expressed in E. coli BL21(DE3), TALON purified

[1] = substrate: Nc1ccn([C@@H]2O[C@H](COP(=O)(O)O)[C@@H](O)[C@H]2O)c(=O)n1; type: biochemical, Bacillus subtilis; conditions: 50 mM Tris-HCl pH 7.8, 10 mM MgCl2, 250 mM KCl, 1 mM NH4Cl, 37 °C
[2] = substrate: Nc1nc2c(ncn2[C@@H]2O[C@H](COP(=O)(O)O)[C@@H](O)[C@H]2O)c(=O)[nH]1; type: biochemical, Bacillus subtilis; conditions: 50 mM Tris-HCl pH 7.8, 10 mM MgCl2, 250 mM KCl, 1 mM NH4Cl, 37 °C
[3] = substrate: O=P(O)(O)OC(CO)CO; type: biochemical, Bacillus subtilis; conditions: 50 mM Tris-HCl pH 7.8, 10 mM MgCl2, 250 mM KCl, 1 mM NH4Cl, 37 °C
[4] = substrate: O=c1ccn([C@@H]2O[C@H](COP(=O)(O)O)[C@@H](O)[C@H]2O)c(=O)[nH]1; type: biochemical, Bacillus subtilis; conditions: 50 mM Tris-HCl pH 7.8, 10 mM MgCl2, 250 mM KCl, 1 mM NH4Cl, 37 °C
[5] = substrate: Nc1ncnc2c1ncn2[C@@H]1O[C@H](COP(=O)(O)O)[C@@H](O)[C@H]1O; type: biochemical, Bacillus subtilis; conditions: 50 mM Tris-HCl pH 7.8, 10 mM MgCl2, 250 mM KCl, 1 mM NH4Cl, 37 °C

T1 sequence (P54452 whole entry): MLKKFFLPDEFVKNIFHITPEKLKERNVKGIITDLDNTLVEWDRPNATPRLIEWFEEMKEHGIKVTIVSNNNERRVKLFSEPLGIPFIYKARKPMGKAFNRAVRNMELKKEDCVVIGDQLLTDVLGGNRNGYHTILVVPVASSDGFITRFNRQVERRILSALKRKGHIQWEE
T2 sequence (P94526 whole entry): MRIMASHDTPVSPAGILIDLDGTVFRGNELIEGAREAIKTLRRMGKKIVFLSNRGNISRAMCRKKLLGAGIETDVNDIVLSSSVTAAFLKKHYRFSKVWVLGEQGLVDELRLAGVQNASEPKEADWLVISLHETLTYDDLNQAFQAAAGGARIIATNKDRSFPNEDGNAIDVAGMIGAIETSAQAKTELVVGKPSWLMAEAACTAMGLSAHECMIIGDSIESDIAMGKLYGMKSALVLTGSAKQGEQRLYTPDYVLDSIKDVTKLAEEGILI

**Q.** With Nc1nc2c(ncn2[C@@H]2O[C@H](COP(=O)(O)O)[C@@H](O)[C@H]2O)c(=O)[nH]1 [GMP] as the molecule, how does the “phosphate release, molybdate assay, A820” value (YqeG) read?
**A.** YqeG hydrolyzed GMP and G6P only at the higher concentration

**Q.** What does the source list for O=P(O)(O)OC[C@H]1OC(O)[C@H](O)[C@@H](O)[C@@H]1O (some centres unmarked) [G6P]?
**A.** phosphate release, molybdate assay, A820 (YqeG): YqeG hydrolyzed GMP and G6P only at the higher concentration; phosphate release, molybdate assay, A820 (AraL): AraL activity was enhanced particularly against G6P at the higher concentration

B1: YktC (Bacillus subtilis subsp. subtilis str. 168) (protein)
chain: MTNWTEIDEIAKKWIREAGARITQSMHESLTIETKSNPNDLVTNIDKETEKFFIDRIQETFPGHRILGEEGQGDKIHSLEGVVWIIDPIDGTMNFVHQQRNFAISIGIFENGEGKIGLIYDVVHDELYHAFSGRGAYMNETKLAPLKETVIEEAILAINATWVTENRRIDQSVLAPLVKRVRGTRSYGSAALELANVAAGRIDAYITMRLAPWDYAAGCVLLNEVGGTYTTIEGEPFTFLENHSVLAGNPSIHKTIFEEYLHARK
notes: full-length ORF, C-terminal His6 (pET28b, BamHI/HindIII), expressed in E. coli BL21(DE3), TALON purified
**Q.** With B1 as the molecule, how does the Km [1] read?
**A.** 1.6 ± 0.017 mM

**Q.** What about the Km [2] of the same molecule?
**A.** 1.9 ± 0.026 mM

**Q.** What about the Km [3] of the same molecule?
**A.** 0.49 ± 0.035 mM

**Q.** And the Km [4]?
**A.** 2.4 ± 0.052 mM

B2: YcsE (Bacillus subtilis subsp. subtilis str. 168) (protein)
chain: MSVQREDVDIKLIAIDMDGTLLNDEQLISDENRKAIREAEDKGVYVVISTGRTLMTCRELAESLKLSSFLITANGSEIWDSNFNLVERKLLHTDHIQMMWDLRNKHNTNFWASTVNKVWRGEFPENITDHEWLKFGFDIEDDDIRNEVLEELRKNKELEITNSSPTNIEVNALGINKAAALAKVTEKLGFTMENVMAMGDSLNDIAMIKEAGLGVAMGNAQDIVKETADYITDTNIEDGVAKAIRHWVL
notes: full-length ORF, C-terminal His6 (pET28b, NdeI/XhoI), expressed in E. coli BL21(DE3), TALON purified
**Q.** B2 was tested. Which Km [1] did it give?
**A.** 4.7 ± 0.23 mM

**Q.** And the Km [2]?
**A.** 10.3 ± 0.12 mM

**Q.** And the Km [5]?
**A.** 8.6 ± 0.80 mM

**Q.** What about the Km [4] of the same molecule?
**A.** 8.5 ± 0.69 mM

Reference: publication PMC5080769, “Bacillus subtilis 5′-nucleotidases with various functions and substrate specificities” (BMC Microbiology, 2016)
